# Assay results published in patent publication US20260132197A1 (NANJING LEGEND BIOTECH, published 2026).
# Where a chain is given by its changes, count along the chain named. In names and notes the source's numbering stands.
# B1: 108VH5.M24 / 108VL1.M5 (antibody, human IgG4 S228P, kappa, V domains shown)
# VH: EVQLVQSGAEVKKPGASVKVSCKASGYTFTHHWMHWVRQAPGQGLEWMGMIDASDLETRYAQKFQGRVTMTRDTSTSTVYMELSSLRSEDTAVYYCARLGRYYFDYWGQGTLVTVSS
# VL: EIVLTQSPATLSLSPGERATLSCRASQSVSSYLAWYQQKPGQAPRLLIYGASNRATGIPARFSGSGSGTDFTLTISSLEPEDFAVYYCGESYGHLYTFGGGTKVEIKR
# notes: Full-length IgG4 (S228P), kappa; also called VH5.M24 VL1.M5
# B2: 108VH5.M25 / 108VL1.M5 (antibody, human IgG4 S228P, kappa, V domains shown)
# VH: B1 VH with L56R
# VL: B1 VL
# notes: Full-length IgG4 (S228P), kappa; also called VH5.M25 VL1.M5
# B3: 108VH5.M20 / 108VL1.M5 (antibody, human IgG4 S228P, kappa, V domains shown)
# VH: B1 VH with L56A
# VL: B1 VL
# notes: Full-length IgG4 (S228P), kappa; also called VH5.M20 VL1.M5
# B4: 108VH5.M26 / 108VL1.M5 (antibody, human IgG4 S228P, kappa, V domains shown)
# VH: B1 VH with L56V
# VL: B1 VL
# notes: Full-length IgG4 (S228P), kappa; also called VH5.M26 VL1.M5
# B5: 108VH10.Mg / 108VL10.Me (antibody, V domains shown)
# VH: EVQLVESGGGLVQPGGSLRLSCAASGFTFSHHWIHWVRQAPGKGLEWVAMIDASDSETRLSQKFKDRFTISADTSKNTAYLQMNSLRAEDTAVYYCSRLGRYYFDYWGQGTLVTVSS
# VL: DIQMTQSPSSLSASVGDRVTITCRASQSISSYLNWYQQKPGKAPKLLIYGASSRYSGVPSRFSGSRSGTDFTLTISSLQPEDFATYYCGESYGHLYTFGQGTKVEIK
# notes: 4D5-framework series; constant regions not restated for this series; also called VH10.Mg VL10.Me
# B6: 108VH10.Mh / 108VL10.Me (antibody, V domains shown)
# VH: B5 VH with S61V
# VL: B5 VL
# notes: 4D5-framework series; constant regions not restated for this series; also called VH10.Mh VL10.Me
# B7: 108VH10.Mi / 108VL10.Me (antibody, V domains shown)
# VH: B5 VH with Q62D
# VL: B5 VL
# notes: 4D5-framework series; constant regions not restated for this series; also called VH10.Mi VL10.Me
# B8: 108VH10.Mj / 108VL10.Me (antibody, V domains shown)
# VH: B5 VH with K63S
# VL: B5 VL
# notes: 4D5-framework series; constant regions not restated for this series; also called VH10.Mj VL10.Me
# B9: 108VH10.Ml / 108VL10.Me (antibody, V domains shown)
# VH: B5 VH with D66G
# VL: B5 VL
# notes: 4D5-framework series; constant regions not restated for this series; also called VH10.Ml VL10.Me
# B10: 108VH5.M5 / 108VL1.M5 (antibody, human IgG4 S228P, kappa, V domains shown)
# VH: B1 VH with M34I, L56S, Y60L, A61S, Q65K, G66D
# VL: B1 VL
# notes: Full-length IgG4 (S228P), kappa; also called VH5.M5 VL1.M5
# B11: 108VH5.M8 / 108VL1.M5 (antibody, human IgG4 S228P, kappa, V domains shown)
# VH: B1 VH with T28S, M34I, L56S, Q65K, G66D
# VL: B1 VL
# notes: Full-length IgG4 (S228P), kappa; also called VH5.M8 VL1.M5
# B12: 108VH5.M9 / 108VL1.M5 (antibody, human IgG4 S228P, kappa, V domains shown)
# VH: B1 VH with T28S, M34I, L56S, Y60L, A61S
# VL: B1 VL
# notes: Full-length IgG4 (S228P), kappa; also called VH5.M9 VL1.M5
# B13: 108VH10 / 108VL10.Ma (antibody, V domains shown)
# VH: B5 VH with F27Y, T28S, S30T, A53P
# VL: B5 VL with S53N, S56T
# notes: 4D5-framework series; constant regions not restated for this series; also called VH10 VL10.Ma
# B14: 108VH10 / 108VL10.Mc (antibody, V domains shown)
# VH: B5 VH with F27Y, T28S, S30T, A53P
# VL: B5 VL with Q27E, S28N, I29V, S30G, S31T, L33I, N34S, S56T
# notes: 4D5-framework series; constant regions not restated for this series; also called VH10 VL10.Mc
# B15: 108VH10 / 108VL10.Md (antibody, V domains shown)
# VH: B5 VH with F27Y, T28S, S30T, A53P
# VL: B5 VL with Q27E, S28N, I29V, S30G, S31T, L33I, N34S, S53N
# notes: 4D5-framework series; constant regions not restated for this series; also called VH10 VL10.Md
# B16: 108VH10.Ma / 108VL10.M1 (antibody, V domains shown)
# VH: B5 VH with A53P
# VL: B5 VL with Q27E, S28N, I29V, S30G, S31T, L33I, N34S, S53N, S56T
# notes: 4D5-framework series; constant regions not restated for this series; also called VH10.Ma VL10.M1
# B17: 108VH10.Mb / 108VL10.M1 (antibody, V domains shown)
# VH: B5 VH with F27Y, T28S, S30T, I34M, A53P
# VL: B5 VL with Q27E, S28N, I29V, S30G, S31T, L33I, N34S, S53N, S56T
# notes: 4D5-framework series; constant regions not restated for this series; also called VH10.Mb VL10.M1
# B18: 108VH10.Me / 108VL10.M1 (antibody, V domains shown)
# VH: B5 VH with F27Y, T28S, S30T, A53Q
# VL: B5 VL with Q27E, S28N, I29V, S30G, S31T, L33I, N34S, S53N, S56T
# notes: 4D5-framework series; constant regions not restated for this series; Pro53 replaced with Gln; also called VH10.Me VL10.M1
# B19: 108VH10.Md / 108VL10.M1 (antibody, V domains shown)
# VH: B5 VH with F27Y, T28S, S30T, D52K, A53P
# VL: B5 VL with Q27E, S28N, I29V, S30G, S31T, L33I, N34S, S53N, S56T
# notes: 4D5-framework series; constant regions not restated for this series; Asp52 replaced with Lys; also called VH10.Md VL10.M1
# Target: T1, human CD47 on cells (SHP-77 tumor cells, human red blood cells, CCRF-CEM cells, human CD47 CHO-K1 stable cell … (human, UniProt Q08722 19-323))
# T1 construct: whole, on cells; also called RBC
# Assay: flow cytometry on human RBCs;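 note: antibody binding measured by flow cytometry as geometric mean fluorescence intensity over a range of antibody concentrations, with EC50 and maximum taken from a sigmoidal dose-response fit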
Binder,EC50,Fitted Maximal MFI
B1,4 nM,29200 MFI
B2,4 nM,35500 MFI

# Target: T2, wild type human CD47 (Acro Biosystems, cat. no. CD7-H5227) (human, UniProt Q08722 19-139)
# T2 construct: Bought protein used as SPR analyte; also called Human CD47 wt; wild-type CD47
# Assay: SPR, IgG captured, CD47 in flow; exp 4;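 note: biacore T200 SPR using IgG from transfected HEK293 supernatants against wild-type human CD47 or its C33G mutein, rates fitted to association and dissociation curves, KD estimated from them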
Binder,Kd,koff,kon
B3,3 nM,0.0022 s⁻¹,710000 M⁻¹ s⁻¹
B1,5.7 nM,0.003 s⁻¹,520000 M⁻¹ s⁻¹
B2,6.2 nM,0.0028 s⁻¹,450000 M⁻¹ s⁻¹
B4,4.6 nM,0.0026 s⁻¹,570000 M⁻¹ s⁻¹

# Target: T3, Human CD47-C33G (human, UniProt Q08722 19-135)
# T3 construct: also called CD47 mutein with C33G mutation
# Assay: SPR, IgG captured, CD47 in flow; exp 4;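 note: biacore T200 SPR using IgG from transfected HEK293 supernatants against wild-type human CD47 or its C33G mutein, rates fitted to association and dissociation curves, KD estimated from them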
Binder,Kd,koff,kon
B3,15 nM,0.0045 s⁻¹,310000 M⁻¹ s⁻¹
B1,31 nM,0.0067 s⁻¹,220000 M⁻¹ s⁻¹
B2,33 nM,0.0063 s⁻¹,190000 M⁻¹ s⁻¹
B4,23 nM,0.0054 s⁻¹,240000 M⁻¹ s⁻¹

# Target: T2, wild type human CD47 (Acro Biosystems, …)
# Assay: SPR, IgG captured, CD47 in flow; exp 3;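 note: other target is a CD47 mutein carrying C33G, used to obtain true monovalent affinity, with kon and koff fitted from SPR binding curves and KD derived from both rates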
Binder,Kd,koff,kon
B5,4.8 nM,0.0032 s⁻¹,680000 M⁻¹ s⁻¹
B6,17 nM,0.0066 s⁻¹,380000 M⁻¹ s⁻¹
B7,5.2 nM,0.0034 s⁻¹,640000 M⁻¹ s⁻¹
B8,5.8 nM,0.0035 s⁻¹,610000 M⁻¹ s⁻¹
B9,5.6 nM,0.0034 s⁻¹,610000 M⁻¹ s⁻¹

# Target: T3, Human CD47-C33G
# Assay: SPR, IgG captured, CD47 in flow; exp 3;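 note: other target is a CD47 mutein carrying C33G, used to obtain true monovalent affinity, with kon and koff fitted from SPR binding curves and KD derived from both rates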
Binder,Kd,koff,kon
B5,31 nM,0.0072 s⁻¹,230000 M⁻¹ s⁻¹
B6,160 nM,0.013 s⁻¹,79000 M⁻¹ s⁻¹
B7,38 nM,0.0087 s⁻¹,230000 M⁻¹ s⁻¹
B8,38 nM,0.0078 s⁻¹,210000 M⁻¹ s⁻¹
B9,36 nM,0.0073 s⁻¹,200000 M⁻¹ s⁻¹

# Target: T1, human CD47 on cells (SHP-77 tumor …)
# Assay: flow cytometry on SHP-77 cells
Binder,EC50,Fitted Maximal MFI
B1,9.8 nM,38700 MFI
B2,7.1 nM,39600 MFI

# Target: T2, wild type human CD47 (Acro Biosystems, …)
# Assay: SPR, IgG captured, CD47 in flow; exp 1;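 note: biacore T200 SPR using IgG from supernatants of transfected HEK293 cells, rate constants fitted to association and dissociation curves, Kd derived from koff over kon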
Binder,Kd,koff,kon
B10,1.3 nM,0.00096 s⁻¹,720000 M⁻¹ s⁻¹
B11,3 nM,0.0022 s⁻¹,720000 M⁻¹ s⁻¹
B12,1.9 nM,0.0014 s⁻¹,760000 M⁻¹ s⁻¹

# Target: T3, Human CD47-C33G
# Assay: SPR, IgG captured, CD47 in flow; exp 1;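 note: biacore T200 SPR using IgG from supernatants of transfected HEK293 cells, rate constants fitted to association and dissociation curves, Kd derived from koff over kon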
Binder,Kd,koff,kon
B10,6.2 nM,0.0021 s⁻¹,330000 M⁻¹ s⁻¹
B11,15 nM,0.0044 s⁻¹,300000 M⁻¹ s⁻¹
B12,8.5 nM,0.0028 s⁻¹,330000 M⁻¹ s⁻¹

# Target: T2, wild type human CD47 (Acro Biosystems, …)
# Assay: SPR, IgG captured, CD47 in flow; exp 2;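 note: rates derived from association and dissociation curves, KD estimated from them, C33G mutein used to avoid CD47 IgV homodimers for true monovalent affinity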
Binder,Kd,koff,kon
B13,1.4 nM,0.0015 s⁻¹,1e+06 M⁻¹ s⁻¹
B14,10 nM,0.002 s⁻¹,190000 M⁻¹ s⁻¹
B15,7.1 nM,0.0016 s⁻¹,230000 M⁻¹ s⁻¹
B16,8.7 nM,0.002 s⁻¹,230000 M⁻¹ s⁻¹
B17,6.5 nM,0.0016 s⁻¹,240000 M⁻¹ s⁻¹
B18,53 nM,0.0027 s⁻¹,52000 M⁻¹ s⁻¹

# Target: T3, Human CD47-C33G
# Assay: SPR, IgG captured, CD47 in flow; exp 2;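 note: rates derived from association and dissociation curves, KD estimated from them, C33G mutein used to avoid CD47 IgV homodimers for true monovalent affinity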
Binder,Kd,koff,kon,binding result
B13,8 nM,0.0029 s⁻¹,360000 M⁻¹ s⁻¹,
B14,64 nM,0.0044 s⁻¹,69000 M⁻¹ s⁻¹,
B15,42 nM,0.0036 s⁻¹,86000 M⁻¹ s⁻¹,
B16,57 nM,0.0046 s⁻¹,82000 M⁻¹ s⁻¹,
B17,39 nM,0.0035 s⁻¹,89000 M⁻¹ s⁻¹,
B19,,,,no binding (tested: 2.5 nM to 1.28 µM of antigen tested)
